Measured values from article PMC10681713, “RAD51 paralogs synergize with RAD51 to protect reversed forks from cellular nucleases” (Nucleic Acids Research, 2023).
Blank lines part the entries; values can stand above or below the molecule they belong to.

How the values were obtained:
[1] = molecular target: Flag-RAD51C (of the BCDX2 complex) (human) (UniProt O43502); experiment: native MS; purified BCDX2 in 500 mM ammonium acetate pH 7.5; low activation energy for the intact complex, in-source trapping (-50 to -250 V) to dissociate it
[2] = molecular target: T1, BCDX2 (RAD51B-RAD51C-RAD51D-XRCC2) (Homo sapiens, UniProt O15315;O43502;O75771;O43543 1-384;1-376;1-328;1-280); experiment: EMSA; 1 mM ATP, 58 nM DNA; Buffer E (composition not in the material), 37 °C, 10 min; paralogs: 50 mM KCl, 1 mM ATP, 0.8% agarose gel; RAD51: 100 mM KCl, 2 mM ATP, 6% TBE-PAGE; settings: protein: recombinant, tags: N-terminal Flag on RAD51C, N-terminal His6 on XRCC2, TEV sites, copies: 1;1;1;1
T1 sequence 1: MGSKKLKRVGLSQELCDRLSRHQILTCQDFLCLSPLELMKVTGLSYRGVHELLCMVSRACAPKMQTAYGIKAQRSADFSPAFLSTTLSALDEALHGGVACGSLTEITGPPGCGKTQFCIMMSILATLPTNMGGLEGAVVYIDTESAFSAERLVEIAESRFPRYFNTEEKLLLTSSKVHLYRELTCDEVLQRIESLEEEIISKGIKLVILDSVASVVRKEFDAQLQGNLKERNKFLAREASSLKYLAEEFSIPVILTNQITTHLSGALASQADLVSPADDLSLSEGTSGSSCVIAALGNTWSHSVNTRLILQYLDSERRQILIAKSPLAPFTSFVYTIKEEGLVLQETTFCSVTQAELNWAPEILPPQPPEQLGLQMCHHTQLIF
T1 sequence 2: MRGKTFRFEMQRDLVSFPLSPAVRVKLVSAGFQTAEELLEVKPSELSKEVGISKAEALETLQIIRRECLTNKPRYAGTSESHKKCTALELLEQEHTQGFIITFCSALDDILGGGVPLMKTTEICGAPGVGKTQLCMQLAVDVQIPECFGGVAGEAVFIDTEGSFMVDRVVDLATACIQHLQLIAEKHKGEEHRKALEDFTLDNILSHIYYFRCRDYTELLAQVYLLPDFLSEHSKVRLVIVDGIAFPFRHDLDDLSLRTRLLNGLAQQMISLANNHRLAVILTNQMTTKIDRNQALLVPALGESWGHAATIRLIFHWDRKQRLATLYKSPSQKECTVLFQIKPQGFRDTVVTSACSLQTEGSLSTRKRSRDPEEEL
T1 sequence 3: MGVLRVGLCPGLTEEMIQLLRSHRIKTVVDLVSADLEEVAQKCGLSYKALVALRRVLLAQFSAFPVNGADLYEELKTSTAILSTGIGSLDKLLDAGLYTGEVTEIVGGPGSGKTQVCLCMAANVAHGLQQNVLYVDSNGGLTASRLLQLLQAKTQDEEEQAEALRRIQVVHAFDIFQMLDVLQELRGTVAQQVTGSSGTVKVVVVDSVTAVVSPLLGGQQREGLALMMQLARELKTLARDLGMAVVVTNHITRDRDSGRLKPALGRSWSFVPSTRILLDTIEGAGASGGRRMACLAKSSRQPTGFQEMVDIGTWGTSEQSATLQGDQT
T1 sequence 4: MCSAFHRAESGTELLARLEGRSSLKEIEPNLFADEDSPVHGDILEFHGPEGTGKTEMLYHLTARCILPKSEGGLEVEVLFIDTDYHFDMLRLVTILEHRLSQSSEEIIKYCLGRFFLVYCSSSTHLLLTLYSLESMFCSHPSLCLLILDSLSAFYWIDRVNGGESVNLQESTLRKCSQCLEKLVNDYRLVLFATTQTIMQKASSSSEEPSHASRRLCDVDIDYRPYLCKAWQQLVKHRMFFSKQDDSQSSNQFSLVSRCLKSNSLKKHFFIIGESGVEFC

CX3 (RAD51C-XRCC3) = molecular target: T2, CX3 (RAD51C-XRCC3) (Homo sapiens, UniProt O43502;O43542 1-376;1-346); experiment: as above; settings: protein: recombinant, tags: N-terminal His6-Flag on RAD51C, copies: 1;1, 25 bp duplex
T2 sequence 1: T1 sequence 2
T2 sequence 2: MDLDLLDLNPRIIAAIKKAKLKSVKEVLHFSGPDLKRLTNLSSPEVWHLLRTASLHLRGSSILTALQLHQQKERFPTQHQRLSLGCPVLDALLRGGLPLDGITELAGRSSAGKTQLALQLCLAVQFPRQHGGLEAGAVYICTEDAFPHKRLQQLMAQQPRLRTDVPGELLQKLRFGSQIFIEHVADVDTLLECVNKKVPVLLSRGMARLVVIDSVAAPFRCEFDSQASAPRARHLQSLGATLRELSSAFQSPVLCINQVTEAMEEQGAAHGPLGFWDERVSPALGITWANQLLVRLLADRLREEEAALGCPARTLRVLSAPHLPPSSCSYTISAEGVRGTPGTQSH

[3] = molecular target: T3, His6-XRCC2 (of the BCDX2 complex) (human, UniProt O43543 1-280); experiment: native MS; purified BCDX2 in 500 mM ammonium acetate pH 7.5; low activation energy for the intact complex, in-source trapping (-50 to -250 V) to dissociate it; settings: both partners purified
T3 construct: human XRCC2, cDNA; a TEV cutting site stands between the tag and the gene; No TEV cleavage is described in the purification; source: Expi293F cells, transfected, co-expressed from pcDNA3.4-tetrad-BCDX2; purified as part of the complex (Ni-NTA, anti-Flag M2 agarose, Superdex 200); not shown: His6, N-terminal, kept
T3 sequence (looked up): T1 sequence 4

stoichiometry N [1]: 1
Molecule: RAD51B (from UniProt O15315 1-384) (natural protein)

B1: dsDNA 55 bp (oligo 13 + oligo 14) (dsDNA)
DNA 1: TTAGAGCTTAATTGCTGAATCTGGTGCTGTGGGTGAACCTGCAGGTGGGCAAAGA
DNA 2: TCTTTGCCCACCTGCAGGTTCACCCACAGCACCAGATTCAGCAATTAAGCTCTAA
binding result ([2]; label: 5' Cy3 on oligo 13, blunt): no binding

B2: 5' overhang DNA (oligo 7 + oligo 8) (mixed)
DNA 1: GGGTGAACCTGCAGGTGGGCAAAGA
DNA 2: ACGCTGCCGAATTCTACCAGTGCCTTGCTAGGACATCTTTGCCCACCTGCAGGTTCACCC
modifications: oligo 8: phosphorothioate bonds at both ends (first 5 and last 5 linkages)
binding result (CX3 (RAD51C-XRCC3); label: 5' Cy3 on oligo 7, 5' overhang 35 nt on strand 2): binds | binding result ([2]; label: 5' Cy3 on oligo 7, 25 bp duplex, 5' overhang 35 nt on strand 2): binds

B3: 3' overhang DNA (oligo 9 + oligo 8) (mixed)
DNA 1: AGGCACTGGTAGAATTCGGCAGCGT
DNA 2: B2 DNA 2
modifications: oligo 8: phosphorothioate bonds at both ends (first 5 and last 5 linkages)
binding result (CX3 (RAD51C-XRCC3); label: 3' Cy3 on oligo 9, 3' overhang 35 nt on strand 2): binds | binding result ([2]; label: 3' Cy3 on oligo 9, 25 bp duplex, 3' overhang 35 nt on strand 2): binds

stoichiometry N [3]: 1
B4: RAD51D (natural protein, human, UniProt O75771 1-328, looked up)
chain: T1 sequence 3
notes: No tag is described on this chain; also called D (in BCDX2 and DX2); source: Expi293F cells, transfected, co-expressed with the other paralogs from one plasmid; purified as part of the complex (Ni-NTA, anti-Flag M2 agarose, Superdex 200)
